Measured values: patent publication US20240254222A1 (Bayer, published 2024)
Values belong to the binder of their own block, whether it stands above or below them.

Legend:
[1] = target: T1, Human Semaphorin3A-Sema Domain, TPP-19068 (human, UniProt Q14563 21-569); experiment: SPR, captured antibody, Sema3A domain analyte
T1 construct: produced inhouse in HEK293-6E; also called human monovalent Sema3A domain
T1 sequence: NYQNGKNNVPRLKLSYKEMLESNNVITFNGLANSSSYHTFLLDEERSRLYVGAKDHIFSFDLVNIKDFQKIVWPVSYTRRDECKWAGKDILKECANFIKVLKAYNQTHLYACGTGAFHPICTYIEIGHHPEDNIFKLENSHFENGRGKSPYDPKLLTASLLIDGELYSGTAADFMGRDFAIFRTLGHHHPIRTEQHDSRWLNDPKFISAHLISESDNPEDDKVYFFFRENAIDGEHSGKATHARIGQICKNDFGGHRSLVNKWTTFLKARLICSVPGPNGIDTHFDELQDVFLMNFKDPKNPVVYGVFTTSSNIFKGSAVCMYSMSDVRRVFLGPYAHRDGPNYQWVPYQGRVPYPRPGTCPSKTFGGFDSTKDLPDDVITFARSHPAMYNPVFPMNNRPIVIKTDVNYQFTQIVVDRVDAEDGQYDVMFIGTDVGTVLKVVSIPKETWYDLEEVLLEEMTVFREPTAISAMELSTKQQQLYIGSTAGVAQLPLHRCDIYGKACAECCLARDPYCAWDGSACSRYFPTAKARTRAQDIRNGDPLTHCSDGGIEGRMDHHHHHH
Method: (§1) To assess the binding kinetics and affinity of anti-Sema3A antibodies as well as their species cross-reactivity profile, binding assays were conducted using surface plasmon resonance (SPR). Binding assays were performed on a Biacore T200 instrument or on a Biacore 8K+ instrument (Cytiva) at 25° C. using assay buffer HBS P+, 300 mM NaCl, 0.75 mM CaCl₂, 2.5 mM MgCl₂, 1 mg/ml BSA, 0.05% NaN₃. Antibodies were captured either via anti-human Fc IgGs (“Human antibody capture kit”, Order No. BR100839, Cytiva) or in case of Fc-tagged analytes by anti-human Fab IgGs (“Human Fab capture kit”, Order No. 28958325, Cytiva) covalently amine coupled to a Series S CM5 sensor chip (Cytiva). The amine coupling was carried out according to the manufacturer's instructions using 1-ethyl-3-(3-dimethylaminopropyl) carbodiimide hydrochloride (EDC), N-hydroxysuccinimide (NHS) and ethanolamine HCl, pH 8.5 (“Amine Coupling Kit” BR-1000-50, Cytiva.). For phage display hits Fc-tagged human and mouse Sema3A was used as analytes in a concentration range from 1.56-200 nM. Human, mouse, cynomolgus, rat, dog and pig monovalent Sema3A domain were used as analytes in a concentration series from […] in multi cycle kinetics mode or in 100 nM for binding analysis only. The sensor surface was regenerated with glycine pH 2.0 after each antigen injection. Obtained sensorgrams were double referenced (subtraction of reference flow cell signal and buffer injection) and were fitted to a 1:1 Langmuir binding model to derive kinetic data using the Biacore T200 Evaluation software.

[2] = target: T2, Mouse Semaphorin3A-Sema Domain, TPP-19069 (mouse, UniProt O08665 21-569); experiment: SPR, captured antibody, Sema3A domain analyte
T2 construct: produced inhouse
T2 sequence: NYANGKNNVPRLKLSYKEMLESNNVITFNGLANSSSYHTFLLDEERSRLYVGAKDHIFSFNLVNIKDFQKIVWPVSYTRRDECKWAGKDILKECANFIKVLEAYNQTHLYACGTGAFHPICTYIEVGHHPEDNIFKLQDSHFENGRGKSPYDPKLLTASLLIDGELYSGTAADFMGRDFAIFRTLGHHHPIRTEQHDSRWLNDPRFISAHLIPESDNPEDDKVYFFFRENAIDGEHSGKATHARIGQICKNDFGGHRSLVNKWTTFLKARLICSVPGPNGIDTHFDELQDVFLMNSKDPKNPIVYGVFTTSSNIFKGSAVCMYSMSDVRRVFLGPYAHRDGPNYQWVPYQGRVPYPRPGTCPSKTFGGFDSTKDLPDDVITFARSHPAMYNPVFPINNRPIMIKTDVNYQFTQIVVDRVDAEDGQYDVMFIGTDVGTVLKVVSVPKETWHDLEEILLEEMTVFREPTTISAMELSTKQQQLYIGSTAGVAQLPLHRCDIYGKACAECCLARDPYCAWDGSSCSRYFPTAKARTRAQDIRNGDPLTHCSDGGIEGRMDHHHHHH
Method: as §1

[3] = target: T3, Cyno Semaphorin3A-Sema Domain, TPP-19122 (cynomolgus (Macaca fascicularis), UniProt Q63548 21-569 (rat entry), limits assumed); experiment: SPR, captured antibody, Sema3A domain analyte
T3 construct: produced inhouse
T3 chain: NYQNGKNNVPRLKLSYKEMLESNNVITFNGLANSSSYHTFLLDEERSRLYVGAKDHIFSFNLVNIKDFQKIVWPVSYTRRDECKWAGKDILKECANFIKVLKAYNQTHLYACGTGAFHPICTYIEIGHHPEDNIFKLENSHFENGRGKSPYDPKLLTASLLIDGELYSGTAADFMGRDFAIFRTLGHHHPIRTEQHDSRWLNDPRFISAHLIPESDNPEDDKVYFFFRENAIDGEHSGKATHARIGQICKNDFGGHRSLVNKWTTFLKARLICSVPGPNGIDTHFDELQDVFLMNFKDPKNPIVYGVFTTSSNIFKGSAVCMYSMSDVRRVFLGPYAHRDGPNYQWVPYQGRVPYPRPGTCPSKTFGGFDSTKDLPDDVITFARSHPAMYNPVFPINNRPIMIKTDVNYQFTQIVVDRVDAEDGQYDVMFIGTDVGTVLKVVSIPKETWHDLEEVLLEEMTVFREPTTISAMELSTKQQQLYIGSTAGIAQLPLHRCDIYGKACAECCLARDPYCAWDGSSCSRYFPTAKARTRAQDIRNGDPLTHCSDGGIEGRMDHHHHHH
Method: as §1

[4] = target: T4, Human Semaphorin3A-Fc (R&D Systems), TPP-13211 (human); experiment: competition ELISA on coated TPP-13211, competitor biotinylated TPP-15374
T4 construct: R&D Systems 1250-S3; also called recombinant human Sema3A-Fc chimera
Method: For screening in a competition ELISA setup, human Sema3a (TPP-13211) was coated onto 384-well plates (Greiner bio-one, 781077) with a concentration of 0.5 μg/ml in coating buffer (Carbonate-Basis pH 9.6, Candor 121125) over night at 10° C. After washing the plates 3 times with 50 μl PBS 0.05% Tween the plates were blocked with 50 μl Smart Block® (Candor 113500) for 1 h at 20° C. and washed again 3 times as described.
Subsequently, 20 μl of pre-mixed antibody solution was added to the plates and incubate for 18 h at 10° C. […] The total concentration of the added antibody solution was 0.25 μg/ml. During the incubation time the antibodies bound to the plates in a competitive manner as they compete for the same epitope on the human Sema3A protein.
After subsequent washing with 50 μl PBS 0.05% Tween for 3 times, 20 μl of a Streptavidin-HRP solution (R&D Systems, DY998, 1:200 in PBS 0.05% Tween 10% Smart Block) were added and incubated for 1 h and 20° C. followed by subsequent washing 3 times with 50 μl PBS 0.05% Tween and addition of 20 μl Amplex Red solution (Invitrogen A12222, 1:1000 in NaP-buffer 50 mM pH7.6 with 1:10000 of 30% H2O2). After a final incubation for 20 min at 20° C. the signal was determined using an emission wavelength of 595 nm and excitation of 530 nm.

T4 sequence (chain, as listed by the source limits assumed): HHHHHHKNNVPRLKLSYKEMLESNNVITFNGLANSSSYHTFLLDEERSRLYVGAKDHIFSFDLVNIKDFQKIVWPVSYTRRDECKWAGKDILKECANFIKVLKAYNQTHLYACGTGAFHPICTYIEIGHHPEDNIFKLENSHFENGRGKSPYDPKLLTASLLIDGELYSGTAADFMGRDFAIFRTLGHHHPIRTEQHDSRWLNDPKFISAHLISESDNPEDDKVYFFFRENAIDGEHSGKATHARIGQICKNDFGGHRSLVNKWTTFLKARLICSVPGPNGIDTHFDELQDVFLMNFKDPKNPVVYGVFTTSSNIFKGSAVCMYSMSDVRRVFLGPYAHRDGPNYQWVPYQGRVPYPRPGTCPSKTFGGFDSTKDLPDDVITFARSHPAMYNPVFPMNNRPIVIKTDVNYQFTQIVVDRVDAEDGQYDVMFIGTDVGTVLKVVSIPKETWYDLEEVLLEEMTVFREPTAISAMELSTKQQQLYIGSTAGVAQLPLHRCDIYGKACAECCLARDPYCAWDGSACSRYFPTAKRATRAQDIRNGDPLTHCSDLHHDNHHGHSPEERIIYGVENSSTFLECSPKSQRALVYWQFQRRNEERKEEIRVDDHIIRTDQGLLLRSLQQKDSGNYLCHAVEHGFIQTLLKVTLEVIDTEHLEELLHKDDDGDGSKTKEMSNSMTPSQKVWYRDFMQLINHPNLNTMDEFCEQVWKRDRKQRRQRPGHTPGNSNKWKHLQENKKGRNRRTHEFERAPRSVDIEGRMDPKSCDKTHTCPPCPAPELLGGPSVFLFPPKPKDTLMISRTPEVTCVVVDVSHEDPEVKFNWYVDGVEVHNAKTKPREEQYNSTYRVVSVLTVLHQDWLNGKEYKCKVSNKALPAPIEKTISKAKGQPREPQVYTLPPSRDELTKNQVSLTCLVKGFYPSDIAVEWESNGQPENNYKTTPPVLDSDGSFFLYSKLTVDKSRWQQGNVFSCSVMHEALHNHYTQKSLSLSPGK

B1: TPP-18533 (antibody, human IgG1, lambda, V domains shown)
VH: EVQLLESGGGLVQPGGSLRLSCAASGFTFSSYEMNWVRQAPGKGLEWVSGISWNSGSIGYADSVKGRFTISRDNSKNTLYLQMNSLRAEDTAVYYCARSGYSSSWFDPDFDYWGQGTLVTVSS
VL: QSVLTQPPSVSGAPGQRVTISCTGSSSNIGAGYDVHWYQQLPGTAPKLLIYGNSNRPSGVPDRFSGSKSGTSASLAITGLQAEDEADYYCSSYAGSNPYVVFGGGTKLTVLG
notes: IgG1
Kd [1]: 8700 pM
Kd [2]: 8100 pM
Kd [3]: 6400 pM

B2: TPP-25257 (antibody, human IgG1, lambda, V domains shown)
VH: EVQLLESGGGLVQPGGSLRLSCAASGFDFDSYEMNWVRQAPGKGLEWVSGISWNSGWIDYADSVKGRFTISRDNSKNTLYLQMNSLRAEDTAVYYCARSGYSSSWFDPDFDYWGQGTLVTVSS
VL: QSVLTQPPSVSGAPGQRVTISCTGSSSNIGAGYDVHWYQQLPGTAPKLLIYGNSNRPSGVPDRFSGSKSGTSASLAITGLQAEDEADYYCQSYAGPNPYVVFGGGTKLTVLG
VAL norm to TPP-9809 (1 to 1 ratio) [4]: 0.36
VAL norm to TPP-9809 (1 to 5 ratio) [4]: 0.18
Kd [1]: 53 pM

B3: TPP-25248 (antibody, human IgG1, lambda, V domains shown)
VH: EVQLLESGGGLVQPGGSLRLSCAASGFDFSSYEMNWVRQAPGKGLEWVSGISWNSGWIGYADSVKGRFTISRDNSKNTLYLQMNSLRAEDTAVYYCARSGYSSSWFDPDFDYWGQGTLVTVSS
VL: QSVLTQPPSVSGAPGQRVTISCTGSSSNIGAGYDVHWYQQLPGTAPKLLIYGNSNRPSGVPDRFSGSKSGTSASLAITGLQAEDEADYYCQSYAGPNPYVVFGGGTKLTVLG
VAL norm to TPP-9809 (1 to 1 ratio) [4]: 0.36
VAL norm to TPP-9809 (1 to 5 ratio) [4]: 0.2
Kd [1]: 50 pM

B4: TPP-25255 (antibody, human IgG1, lambda, V domains shown)
VH: EVQLLESGGGLVQPGGSLRLSCAASGFDFSSYEMNWVRQAPGKGLEWVSGISWNSGWIDYADSVKGRFTISRDNSKNTLYLQMNSLRAEDTAVYYCARSGYSSSWFDPDFDYWGQGTLVTVSS
VL: QSVLTQPPSVSGAPGQRVTISCTGSSSNIGAGYDVHWYQQLPGTAPKLLIYGNSNRPSGVPDRFSGSKSGTSASLAITGLQAEDEADYYCQSYAGPNPYVVFGGGTKLTVLG
VAL norm to TPP-9809 (1 to 1 ratio) [4]: 0.37
VAL norm to TPP-9809 (1 to 5 ratio) [4]: 0.17
Kd [1]: 51 pM

More lines, in order of falling Kd [1], values ahead:

VAL norm to TPP-9809 (1 to 1 ratio) [4]: 0.48
VAL norm to TPP-9809 (1 to 5 ratio) [4]: 0.19
Kd [1]: 49 pM
B5: TPP-25064 (antibody, human IgG1, lambda, V domains shown)
VH: EVQLLESGGGLVQPGGSLRLSCAASGFTFDSYEMNWVRQAPGKGLEWVSGISWNSGWIDYADSVKGRFTISRDNSKNTLYLQMNSLRAEDTAVYYCARSGYSSSWFDPDFDYWGQGTLVTVSS
VL: QSVLTQPPSVSGAPGQRVTISCTGSSSDIGAGYDVHWYQQLPGTAPKLLIYGNSNRPSGVPDRFSGSKSGTSASLAITGLQAEDEADYYCSSYAGPNPYVVFGGGTKLTVLG

VAL norm to TPP-9809 (1 to 1 ratio) [4]: 0.43
VAL norm to TPP-9809 (1 to 5 ratio) [4]: 0.17
Kd [1]: 49 pM
B6: TPP-25224 (antibody, human IgG1, lambda, V domains shown)
VH: EVQLLESGGGLVQPGGSLRLSCAASGFTFDSYEMNWVRQAPGKGLEWVSGISWNSGWIDYADSVKGRFTISRDNSKNTLYLQMNSLRAEDTAVYYCARSGYSSSWFDPDFDYWGQGTLVTVSS
VL: QSVLTQPPSVSGAPGQRVTISCTGSSSNIGAGYDVHWYQQLPGTAPKLLIYGNSNRPSGVPDRFSGSKSGTSASLAITGLQAEDEADYYCQSYAGINPYVVFGGGTKLTVLG

VAL norm to TPP-9809 (1 to 1 ratio) [4]: 0.41
VAL norm to TPP-9809 (1 to 5 ratio) [4]: 0.15
Kd [1]: 49 pM
B7: TPP-25256 (antibody, human IgG1, lambda, V domains shown)
VH: EVQLLESGGGLVQPGGSLRLSCAASGFTFDSYEMNWVRQAPGKGLEWVSGISWNSGWIDYADSVKGRFTISRDNSKNTLYLQMNSLRAEDTAVYYCARSGYSSSWFDPDFDYWGQGTLVTVSS
VL: QSVLTQPPSVSGAPGQRVTISCTGSSSNIGAGYDVHWYQQLPGTAPKLLIYGNSNRPSGVPDRFSGSKSGTSASLAITGLQAEDEADYYCQSYAGPNPYVVFGGGTKLTVLG
